Biological target: T1, human gastric inhibitory peptide receptor (hGIPR) (Homo sapiens, UniProt P48546)
T1 construct: expressed in transfected cells; host or cells: HEK293
T1 sequence (P48546 22-466): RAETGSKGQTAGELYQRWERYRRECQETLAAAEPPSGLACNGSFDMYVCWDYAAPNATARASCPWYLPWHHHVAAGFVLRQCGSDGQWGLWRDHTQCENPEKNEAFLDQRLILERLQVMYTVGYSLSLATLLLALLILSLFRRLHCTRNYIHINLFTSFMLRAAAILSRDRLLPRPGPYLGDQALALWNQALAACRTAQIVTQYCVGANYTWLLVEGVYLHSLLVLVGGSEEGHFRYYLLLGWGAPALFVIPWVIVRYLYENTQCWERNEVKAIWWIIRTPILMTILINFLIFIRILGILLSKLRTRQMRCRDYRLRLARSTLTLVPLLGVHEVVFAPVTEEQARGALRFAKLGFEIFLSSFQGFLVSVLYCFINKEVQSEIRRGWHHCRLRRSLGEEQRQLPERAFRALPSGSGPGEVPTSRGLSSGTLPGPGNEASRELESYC
Assay: cAMP pharmacological functional assay in presence of 0.1% casein, hGIPR
Assay type: cell-based
Conditions: ratio of hGIPR to hGLP1R cAMP EC50 ratios

Substance	[hGIPR/hGLP1R] EC50 Ratio
Y-Aib-EGT-αMeF(2F)-TSDVSI-αMeL-LD-Orn-K((2-[2-(2-Amino-ethoxy)-ethoxy]-acetyl)2-(γGlu)-CO—(CH2)16—CO2H)AQ-Aib-AFI-(D-Glu)-αMeY-LIEGGPSSGAPPPS-NH2 (YXEGTXTSDVSIXLDXKAQXAFIXXLIEGGPSSGAPPPS; Aib, Orn, αMe residues, lipidated Lys, D-Glu, amide; (2)..(2) Xaa at position 2 is Aib; (6)..(6) Xaa at position 6 is alpha-methyl-Phe(2F); (13)..(13) Xaa at position 13 is alpha-methyl-Leu; (16)..(16) Xaa at position 16 is Orn; MOD_RES (17)..(17) Lys at position 17 is chemically modified by conjugation of the epsilon-amino group of the Lys side chain with (2-[2-(2-amino-ethoxy)-ethoxy]-acetyl)2-(gamma-Glu)-CO-(CH2)16- CO2H; (20)..(20) Xaa at positi) [Peptide 242]	2.85
Y-Aib-EGTFTSDYSI-αMeL-LDTK((2-[2-(2-Amino-ethoxy)-ethoxy]-acetyl)2-(γGlu)-CO—(CH2)18—CO2H)AQ-Aib-AFIEYLIEGG-NH2 (YXEGTFTSDYSIXLDTKAQXAFIEYLIEGG; Aib, αMeL; K lipidated C20 diacid-γGlu-AEEA2; C-terminal amide; (2)..(2) Xaa at position 2 is Aib; (13)..(13) Xaa at position 13 is alpha-methyl-Leu; MOD_RES (17)..(17) Lys at position 17 is chemically modified by conjugation of the epsilon-amino group of the Lys side chain with (2-[2-(2-amino-ethoxy)-ethoxy]-acetyl)2-(gamma-Glu)-CO-(CH2)18- CO2H; (20)..(20) Xaa at position 20 is Aib; MOD_RES (30)..(30) Gly at position 30 is amidated) [Peptide 65]	4.46
Y-Aib-EGTFTSDYSI-αMeL-LDSK((2-[2-(2-Amino-ethoxy)-ethoxy]-acetyl)2-(γGlu)-CO—(CH2)18—CO2H)AQ-Aib-AFIEYLIEGG-NH2 (YXEGTFTSDYSIXLDSKAQXAFIEYLIEGG; Aib, αMeL; K lipidated C20 diacid-γGlu-AEEA2; C-terminal amide; (2)..(2) Xaa at position 2 is Aib; (13)..(13) Xaa at position 13 is alpha-methyl-Leu; MOD_RES (17)..(17) Lys at position 17 is chemically modified by conjugation of the epsilon-amino group of the Lys side chain with (2-[2-(2-amino-ethoxy)-ethoxy]-acetyl)2-(gamma-Glu)-CO-(CH2)18- CO2H; (20)..(20) Xaa at position 20 is Aib; MOD_RES (30)..(30) Gly at position 30 is amidated) [Peptide 64]	3.66
Y-Aib-EGT-αMeF(2F)-TSDYSI-Aib-LD-Orn-K((2-[2-(2-Amino-ethoxy)-ethoxy]-acetyl)2-(γGlu)-CO—(CH2)18—CO2H)AQ-Aib-EFI-(D-Glu)-YLIEGGPSSGAPPPS-NH2 (YXEGTXTSDYSIXLDXKAQXEFIXYLIEGGPSSGAPPPS; Aib, Orn, αMeF(2F), lipidated Lys, D-Glu, amide; (2)..(2) Xaa at position 2 is Aib; (6)..(6) Xaa at position 6 is alpha-methyl-Phe(2F); (13)..(13) Xaa at position 13 is Aib; (16)..(16) Xaa at position 16 is Orn; MOD_RES (17)..(17) Lys at position 17 is chemically modified by conjugation of the epsilon-amino group of the Lys side chain with (2-[2-(2-amino-ethoxy)-ethoxy]-acetyl)2-(gamma-Glu)-CO-(CH2)18- CO2H; (20)..(20) Xaa at position 20 is Aib;) [Peptide 250]	4.34
Y-Aib-EGT-αMeF-TSDYSI-αMeL-LDKK((2-[2-(2-Amino-ethoxy)-ethoxy]-acetyl)2-(γGlu)-CO—(CH2)18—CO2H)AQ-Aib-TFIEYLIEGGPSSGAPPPS-NH2 (YXEGTXTSDYSIXLDKKAQXTFIEYLIEGGPSSGAPPPS; Aib, αMeF, αMeL; acylated lysine C20 diacid; amide; (2)..(2) Xaa at position 2 is Aib; (6)..(6) Xaa at position 6 is alpha-methyl-Phe; (13)..(13) Xaa at position 13 is alpha-methyl-Leu; MOD_RES (17)..(17) Lys at position 17 is chemically modified by conjugation of the epsilon-amino group of the Lys side chain with (2-[2-(2-amino-ethoxy)-ethoxy]-acetyl)2-(gamma-Glu)-CO-(CH2)18- CO2H; (20)..(20) Xaa at position 20 is Aib; MOD_RES (39)..(39) Ser at po) [Peptide 139]	3.19
Y-Aib-EGT-αMeF(2F)-TSDYSI-Aib-LD-Orn-K((2-[2-(2-Amino-ethoxy)-ethoxy]-acetyl)2-(Glu)-CO—(CH2)16—CO2H)AQ-Aib-EFI-(D-Glu)-YLIEGGPSSGAPPPS-NH2 (YXEGTXTSDYSIXLDXKAQXEFIXYLIEGGPSSGAPPPS; Aib, Orn, αMeF(2F), lipidated Lys, D-Glu, amide; (2)..(2) Xaa at position 2 is Aib; (6)..(6) Xaa at position 6 is alpha-methyl-Phe(2F); (13)..(13) Xaa at position 13 is Aib; (16)..(16) Xaa at position 16 is Orn; MOD_RES (17)..(17) Lys at position 17 is chemically modified by conjugation of the epsilon-amino group of the Lys side chain with (2-[2-(2-amino-ethoxy)-ethoxy]-acetyl)2-(gamma-Glu)-CO-(CH2)16- CO2H; (20)..(20) Xaa at position 20 is Aib;) [Peptide 247]	4.20
Y-Aib-EGT-αMeF(2F)-TSD-4Pal-SI-αMeL-LDEK((2-[2-(2-Amino-ethoxy)-ethoxy]-acetyl)2-(εK)-CO—(CH2)18—CO2H)AQ-Aib-EFI-(D-Glu)-YLIEGGPSSGAPPPS-NH2 (YXEGTXTSDXSIXLDEKAQXEFIXYLIEGGPSSGAPPPS; Aib, αMeF(2F), 4Pal, αMeL, D-Glu; εK-lipidated K; amide; (2)..(2) Xaa at position 2 is Aib; (6)..(6) Xaa at position 6 is alpha-methyl-Phe(2F); (10)..(10) Xaa at position 10 is 4Pal; (13)..(13) Xaa at position 13 is alpha-methyl-Leu; MOD_RES (17)..(17) Lys at position 17 is chemically modified by conjugation of the epsilon-amino group of the Lys side chain with (2-[2-(2-Amino-ethoxy)-ethoxy]-acetyl)2-(epsilon-Lys)-CO-(CH2)18- CO2H; (20)..(20) Xaa at pos) [Peptide 207]	3.87
Y-Aib-EGTFTSDYSILLDKK((2-[2-(2-Amino-ethoxy)-ethoxy]-acetyl)2-(γGlu)-CO—(CH2)18—CO2H)AQ-Aib-AFIEYLI-(D-Glu)-GGPSSGAPPPS-NH2 (YXEGTFTSDYSILLDKKAQXAFIEYLIXGGPSSGAPPPS; Aib, D-Glu; K lipidated C20 diacid-γGlu-AEEA2; C-terminal amide; (2)..(2) Xaa at position 2 is Aib; MOD_RES (17)..(17) Lys at position 17 is chemically modified by conjugation of the epsilon-amino group of the Lys side chain with (2-[2-(2-amino-ethoxy)-ethoxy]-acetyl)2-(gamma-Glu)-CO-(CH2)18- CO2H; (20)..(20) Xaa at position 20 is Aib; (28)..(28) Xaa at position 28 is D-Glu; MOD_RES (39)..(39) Ser at position 39 is amidated) [Peptide 83]	4.84
Y-Aib-EGT-αMeF-TSDYSI-αMeL-LDKK((2-[2-(2-Amino-ethoxy)-ethoxy]-acetyl)2-(γGlu)-CO—(CH2)18—CO2H)AQ-Aib-Aib-FIEYLIEGGPSSGAPPPS-NH2 (YXEGTXTSDYSIXLDKKAQXXFIEYLIEGGPSSGAPPPS; Aib, αMeF, αMeL; acylated lysine C20 diacid; amide; (2)..(2) Xaa at position 2 is Aib; (6)..(6) Xaa at position 6 is alpha-methyl-Phe; (13)..(13) Xaa at position 13 is alpha-methyl-Leu; MOD_RES (17)..(17) Lys at position 17 is chemically modified by conjugation of the epsilon-amino group of the Lys side chain with (2-[2-(2-amino-ethoxy)-ethoxy]-acetyl)2-(gamma-Glu)-CO-(CH2)18- CO2H; (20)..(20) Xaa at position 20 is Aib; (21)..(21) Xaa at position 2) [Peptide 143]	3.89

From patent US12295987B2, “Method of using a GIP/GLP1 co-agonist for diabetes” (Eli Lilly and Company, priority 2018, dated 2025)
